# In PMC9352680, “A comprehensive thermodynamic model for RNA binding by the Saccharomyces cerevisiae Pumilio protein PUF4”:
# Where a chain is given by its changes, count along the chain named. Names and notes keep the numbering of the source.
# T1: PUF4 RNA-binding domain (Saccharomyces cerevisiae, UniProt P25339 537-888)
# T1 sequence: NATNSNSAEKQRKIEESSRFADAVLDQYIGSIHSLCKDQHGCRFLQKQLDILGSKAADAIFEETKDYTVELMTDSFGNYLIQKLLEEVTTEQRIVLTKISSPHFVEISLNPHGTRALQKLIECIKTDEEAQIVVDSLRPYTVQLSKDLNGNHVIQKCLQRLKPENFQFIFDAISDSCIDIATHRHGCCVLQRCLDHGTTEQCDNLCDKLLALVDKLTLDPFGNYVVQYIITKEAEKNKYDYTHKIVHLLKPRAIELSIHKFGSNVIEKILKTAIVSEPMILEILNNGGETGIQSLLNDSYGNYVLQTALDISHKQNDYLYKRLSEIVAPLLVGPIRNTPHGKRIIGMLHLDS
# B1: Id_ii_S2_P3E.3_K3.2_C3.2_[T-1C]_H3.2_A3.1_F3.1_T3.2_[T9A] (ssRNA)
# RNA: UUUGAUUAAUAUGAUAUCGUUCUUUCUCCUAUAUAUAAAUUCUUUCUCGAUAUCAUAUUAAUCUUU
# B2: Id_ii_S2_P3E.4_K3.3_C3.2_[C-2G]_H3.3_A3.1_F3.1_T3.2_[A10C] (ssRNA)
# RNA: B1 RNA with C28G, C29U, U30A, A31C, U32A, A33C, A38U, A39C
# B3: Id_ii_S2_P3E.3_K3.2_C3.2_[T-1A]_H3.2_A3.1_F3.1_T3.2_[A10C] (ssRNA)
# RNA: B1 RNA with C29A, A38U, A39C
# B4: Id_ii_S2_P3E.3_K3.2_C3.2_H3.2_A3.1_F3.1_T3.2_[T9A]_[A10C] (ssRNA)
# RNA: B1 RNA with C29U, A39C
# B5: Id_ii_S2_P3E.3_K3.2_C3.2_H3.2_A3.1_F3.1_T3.2_[T9C] (ssRNA)
# RNA: B1 RNA with C29U, A38C
# B6: Id_ii_S2_P3E.4_K3.3_C3.2_[C-2T]_[T-1C]_H3.3_A3.1_F3.1_T3.2_[T9C] (ssRNA)
# RNA: B1 RNA with C28U, U30A, A31C, U32A, A33C, A38C
# B7: Id_ii_S2_P3E.4_K3.3_C3.2_[C-2T]_[T-1C]_H3.3_A3.1_F3.1_T3.2_[T9C]_[A10T] (ssRNA)
# RNA: B1 RNA with C28U, U30A, A31C, U32A, A33C, A38C, A39U
# B8: Id_ii_S2_P3E.4_K3.3_C3.2_[C-2G]_[T-1C]_H3.3_A3.1_F3.1_T3.2_[T9A]_[A10C] (ssRNA)
# RNA: B1 RNA with C28G, U30A, A31C, U32A, A33C, A39C
# B9: Id_ii_S2_P3E.4_K3.3_C3.2_[C-2G]_H3.3_A3.1_F3.1_T3.2 (ssRNA)
# RNA: B1 RNA with C28G, C29U, U30A, A31C, U32A, A33C, A38U
# B10: Id_ii_S2_P3E.3_K3.2_C3.2_[T-1A]_H3.2_A3.1_F3.1_T3.2_[T9A]_[A10G] (ssRNA)
# RNA: B1 RNA with C29A, A39G
# B11: Id_ii_S2_P3E.3_K3.2_C3.2_H3.2_A3.1_F3.1_T3.2_[T9C]_[A10G] (ssRNA)
# RNA: B1 RNA with C29U, A38C, A39G
# B12: Id_ii_S2_P3E.4_K3.3_C3.2_[C-2T]_H3.3_A3.1_F3.1_T3.2_[T9C]_[A10T] (ssRNA)
# RNA: B1 RNA with C28U, C29U, U30A, A31C, U32A, A33C, A38C, A39U
# B13: Id_ii_S2_P3E.3_K3.2_C3.2_[T-1A]_H3.2_A3.1_F3.1_T3.2_[T9C]_[A10C] (ssRNA)
# RNA: B1 RNA with C29A, A38C, A39C
# B14: Id_ii_S2_P3E.4_K3.3_C3.2_[C-2T]_H3.3_A3.1_F3.1_T3.2_[A10G] (ssRNA)
# RNA: B1 RNA with C28U, C29U, U30A, A31C, U32A, A33C, A38U, A39G
# B15: Id_ii_S2_P3E.3_K3.2_C3.2_H3.2_A3.1_F3.1_T3.2_[T9C]_[A10C] (ssRNA)
# RNA: B1 RNA with C29U, A38C, A39C
# B16: Id_ii_S2_P3E.3_K3.2_C3.2_[T-1A]_H3.2_A3.1_F3.1_T3.2_[T9C] (ssRNA)
# RNA: B1 RNA with C29A, A38C
# B17: Id_ii_S2_P3E.3_K3.2_C3.2_H3.2_A3.1_F3.1_T3.2 (ssRNA)
# RNA: B1 RNA with C29U, A38U
# B18: Id_ii_S2_P3E.3_K3.2_C3.2_H3.2_A3.1_F3.1_T3.2_[T9A]_[A10T] (ssRNA)
# RNA: B1 RNA with C29U, A39U
# B19: Id_ii_S2_P3E.3_K3.2_C3.2_H3.2_A3.1_F3.1_T3.2_[A10G] (ssRNA)
# RNA: B1 RNA with C29U, A38U, A39G
# B20: Id_ii_S2_P3E.4_K3.3_C3.2_[C-2T]_H3.3_A3.1_F3.1_T3.2_[T9G]_[A10C] (ssRNA)
# RNA: B1 RNA with C28U, C29U, U30A, A31C, U32A, A33C, A38G, A39C
# B21: Id_ii_S2_P3E.3_K3.2_C3.2_H3.2_A3.1_F3.1_T3.2_[A10T] (ssRNA)
# RNA: B1 RNA with C29U, A38U, A39U
# B22: Id_ii_S2_P3E.4_K3.3_C3.2_[C-2G]_H3.3_A3.1_F3.1_T3.2_[T9A]_[A10T] (ssRNA)
# RNA: B1 RNA with C28G, C29U, U30A, A31C, U32A, A33C, A39U
# B23: Id_ii_S2_P3E.3_K3.2_C3.2_H3.2_A3.1_F3.1_T3.2_[A10C] (ssRNA)
# RNA: B1 RNA with C29U, A38U, A39C
# B24: Id_ii_S2_P3E.4_K3.3_C3.2_[C-2T]_[T-1A]_H3.3_A3.1_F3.1_T3.2_[T9A]_[A10T] (ssRNA)
# RNA: B1 RNA with C28U, C29A, U30A, A31C, U32A, A33C, A39U
# B25: Id_ii_S2_P3E.4_K3.3_C3.2_[C-2T]_[T-1C]_H3.3_A3.1_F3.1_T3.2_[A10C] (ssRNA)
# RNA: B1 RNA with C28U, U30A, A31C, U32A, A33C, A38U, A39C
# B26: Id_ii_S2_P3E.4_K3.3_C3.2_[C-2T]_[T-1C]_H3.3_A3.1_F3.1_T3.2_[T9A]_[A10G] (ssRNA)
# RNA: B1 RNA with C28U, U30A, A31C, U32A, A33C, A39G
# B27: Id_ii_S2_P3E.4_K3.3_C3.2_[C-2G]_[T-1C]_H3.3_A3.1_F3.1_T3.2_[T9C] (ssRNA)
# RNA: B1 RNA with C28G, U30A, A31C, U32A, A33C, A38C
# B28: Id_ii_S2_P3E.4_K3.3_C3.2_[C-2T]_[T-1A]_H3.3_A3.1_F3.1_T3.2_[T9A] (ssRNA)
# RNA: B1 RNA with C28U, C29A, U30A, A31C, U32A, A33C
# B29: Id_ii_S2_P3E.4_K3.3_C3.2_[C-2T]_H3.3_A3.1_F3.1_T3.2_[A10C] (ssRNA)
# RNA: B1 RNA with C28U, C29U, U30A, A31C, U32A, A33C, A38U, A39C
# B30: Id_ii_S2_P3E.4_K3.3_C3.2_[C-2T]_[T-1C]_H3.3_A3.1_F3.1_T3.2_[A10T] (ssRNA)
# RNA: B1 RNA with C28U, U30A, A31C, U32A, A33C, A38U, A39U
# B31: Id_ii_S2_P3E.4_K3.3_C3.2_[C-2G]_[T-1C]_H3.3_A3.1_F3.1_T3.2_[T9A] (ssRNA)
# RNA: B1 RNA with C28G, U30A, A31C, U32A, A33C
# B32: Id_ii_S2_P3E.4_K3.3_C3.2_[C-2G]_H3.3_A3.1_F3.1_T3.2_[T9C]_[A10T] (ssRNA)
# RNA: B1 RNA with C28G, C29U, U30A, A31C, U32A, A33C, A38C, A39U
# B33: Id_ii_S2_P3E.3_K3.2_C3.2_[T-1A]_H3.2_A3.1_F3.1_T3.2_[T9A]_[A10C] (ssRNA)
# RNA: B1 RNA with C29A, A39C
# B34: Id_ii_S2_P3E.4_K3.3_C3.2_[C-2T]_[T-1C]_H3.3_A3.1_F3.1_T3.2_[T9C]_[A10C] (ssRNA)
# RNA: B1 RNA with C28U, U30A, A31C, U32A, A33C, A38C, A39C
# B35: Id_ii_S2_P3E.4_K3.3_C3.2_[C-2G]_H3.3_A3.1_F3.1_T3.2_[T9A]_[A10C] (ssRNA)
# RNA: B1 RNA with C28G, C29U, U30A, A31C, U32A, A33C, A39C
# B36: Id_ii_S2_P3E.3_K3.2_C3.2_H3.2_A3.1_F3.1_T3.2_[T9A] (ssRNA)
# RNA: B1 RNA with C29U
# B37: Id_ii_S2_P3E.3_K3.2_C3.2_[T-1A]_H3.2_A3.1_F3.1_T3.2_[T9G]_[A10T] (ssRNA)
# RNA: B1 RNA with C29A, A38G, A39U
# B38: Id_ii_S2_P3E.4_K3.3_C3.2_[C-2T]_[T-1A]_H3.3_A3.1_F3.1_T3.2_[T9C]_[A10T] (ssRNA)
# RNA: B1 RNA with C28U, C29A, U30A, A31C, U32A, A33C, A38C, A39U
# B39: Id_ii_S2_P3E.4_K3.3_C3.2_[C-2G]_H3.3_A3.1_F3.1_T3.2_[T9C]_[A10C] (ssRNA)
# RNA: B1 RNA with C28G, C29U, U30A, A31C, U32A, A33C, A38C, A39C
# B40: Id_ii_S2_P3E.4_K3.3_C3.2_[C-2G]_[T-1C]_H3.3_A3.1_F3.1_T3.2_[T9C]_[A10G] (ssRNA)
# RNA: B1 RNA with C28G, U30A, A31C, U32A, A33C, A38C, A39G
# B41: Id_ii_S2_P3E.3_K3.2_C3.2_[T-1C]_H3.2_A3.1_F3.1_T3.2 (ssRNA)
# RNA: B1 RNA with A38U
# Target: T1, PUF4 RNA-binding domain
# Assay: Mg; RNA-MaP; 20 mM Na-HEPES pH 7.4, 30 mM KOAc, 0.75 mM MgCl2, 0.1% Tween-20, 5% glycerol, 0.1 mg/mL BSA, 2 mM DTT; 25 C; 0.0125-409.6 nM protein
# Conditions: tags: N-His6-TEV cleaved; C-SNAP kept, Cy3B-labelled; label: tethered on chip by stalled RNA polymerase
row,Binder,Kd [µM]
1,B1,0.251
2,B2,0.000486
3,B3,0.227
4,B4,0.112
5,B5,0.108
6,B6,0.417
7,B7,1.26
8,B8,0.0319
9,B9,0.000551
10,B10,1.09
11,B11,0.292
12,B12,0.67
13,B13,0.177
14,B14,> 2.3
15,B15,0.115
16,B16,0.198
17,B17,0.0544
18,B18,0.121
19,B19,0.0838
20,B20,0.898
21,B21,0.0725
22,B22,0.000478
23,B23,0.0832

row,Binder,Kd [µM]
1,B24,2.15
2,B25,1.26
3,B26,> 2.3
4,B27,0.078
5,B28,> 2.3
6,B29,0.475
7,B30,0.94
8,B31,0.0385
9,B32,0.00198
10,B33,0.217
11,B34,1.97
12,B35,0.000742
13,B36,0.401
14,B37,0.447
15,B38,1.86
16,B39,0.000875
17,B40,0.817
18,B41,0.0422
19,UCUCUUUGCAUUAUAAUCUCUU (ssRNA) [Ib_S1_P5E.1_K5.1_C5.1_H5.1_[T3C]_A5.1_F5.1_[T9A]_T5.1],1.4
20,UCUCUUUAUAUUAUAAUCUCUU (ssRNA) [Ib_S1_P5E.1_K5.1_C5.1_H5.1_[G2A]_A5.1_F5.1_[T9A]_T5.1],0.124
21,UCUCUUUGCAUUAUCAUCUCUU (ssRNA) [Ib_S1_P5E.1_K5.1_C5.1_H5.1_[T3C]_A5.1_F5.1_[T9C]_T5.1],> 2.3
22,UCUCUUUGUGUUAUGAUCUCUU (ssRNA) [Ib_S1_P5E.1_K5.1_C5.1_H5.1_[A4G]_A5.1_F5.1_[T9G]_T5.1],0.75
